# Assay results reported in US20050048603A1 (priority 2001, published 2005).
# T1: mycoAC204-443R376A (Mycobacterium tuberculosis, UniProt P9WQ35 204-443)
# T1 sequence: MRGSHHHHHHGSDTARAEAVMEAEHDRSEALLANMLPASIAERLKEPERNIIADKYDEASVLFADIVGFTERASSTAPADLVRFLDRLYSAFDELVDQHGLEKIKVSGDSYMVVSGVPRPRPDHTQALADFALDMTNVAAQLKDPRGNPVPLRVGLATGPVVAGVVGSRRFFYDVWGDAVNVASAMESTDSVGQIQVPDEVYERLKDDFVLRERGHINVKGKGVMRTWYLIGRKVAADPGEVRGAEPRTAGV
# Experiments:
# mycoAC204-443R376A = target: T1, mycoAC204-443R376A
Binder,specific adenylyl cyclase activity against protein concentration (P9WQ35),Kd (mycoAC204-443R376A) [nM]
mycoAC204-443 (protein) MRGSHHHHHHGSDTARAEAVMEAEHDRSEALLANMLPASIAERLKEPERNIIADKYDEASVLFADIVGFTERASSTAPADLVRFLDRLYSAFDELVDQHGLEKIKVSGDSYMVVSGVPRPRPDHTQALADFALDMTNVAAQLKDPRGNPVPLRVGLATGPVVAGVVGSRRFFYDVWGDAVNVASRMESTDSVGQIQVPDEVYERLKDDFVLRERGHINVKGKGVMRTWYLIGRKVAADPGEVRGAEPRTAGV,From 50 to 300 nM it increased five-fold,
mycoAC204-443D300A (enzyme) MRGSHHHHHHGSDTARAEAVMEAEHDRSEALLANMLPASIAERLKEPERNIIADKYDEASVLFADIVGFTERASSTAPADLVRFLDRLYSAFDELVDQHGLEKIKVSGASYMVVSGVPRPRPDHTQALADFALDMTNVAAQLKDPRGNPVPLRVGLATGPVVAGVVGSRRFFYDVWGDAVNVASRMESTDSVGQIQVPDEVYERLKDDFVLRERGHINVKGKGVMRTWYLIGRKVAADPGEVRGAEPRTAGV,,2000
mycoAC204-443D256A (enzyme) MRGSHHHHHHGSDTARAEAVMEAEHDRSEALLANMLPASIAERLKEPERNIIADKYDEASVLFAAIVGFTERASSTAPADLVRFLDRLYSAFDELVDQHGLEKIKVSGDSYMVVSGVPRPRPDHTQALADFALDMTNVAAQLKDPRGNPVPLRVGLATGPVVAGVVGSRRFFYDVWGDAVNVASRMESTDSVGQIQVPDEVYERLKDDFVLRERGHINVKGKGVMRTWYLIGRKVAADPGEVRGAEPRTAGV,,2000
